The record followed here is patent US20180369373A1 (INNATE PHARMA, published 2018).

The target in this test is T1, human NKp46 (isoform a), expressed on cells (human, UniProt O76036 22-304).
T1 construct: also called huNKp46; Raji-huNKp46 Low
Put plainly: IHC on FFPE cell pellets (Raji transfectants, SNK6) and human spleens, antibody at 5 and 10 pg/ml as printed.

T1 sequence (O76036 22-304 Q82K limits assumed): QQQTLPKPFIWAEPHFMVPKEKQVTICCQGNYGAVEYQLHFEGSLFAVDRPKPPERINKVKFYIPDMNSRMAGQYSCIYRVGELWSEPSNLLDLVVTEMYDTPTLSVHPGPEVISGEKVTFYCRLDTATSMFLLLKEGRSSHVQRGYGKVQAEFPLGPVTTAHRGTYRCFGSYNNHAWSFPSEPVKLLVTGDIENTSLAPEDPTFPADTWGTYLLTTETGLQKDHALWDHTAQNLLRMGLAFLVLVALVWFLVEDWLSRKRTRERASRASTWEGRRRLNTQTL

B1: 8E5B antibody (antibody, mouse IgG1, V domains shown)
VH: EIQLQQSGAELVKPGASVKLSCTASGFNIKDTYFHWVKQRPEQGLEWIGRIDPANGNTKYDPKFHDKATIIADISSNTAYLQFSSLTSEDTAVYYCAANRYGYWGQGTTLTVSS
VL: DIVMTQAAPSIPVTPGESVSISCRSSKSLLYINGNTHLFWFLQRPGQSPQLLIYRMSNLASGVPDRFSGSGSGTAFTLRISRVEAEDVGVYYCMQHLEYPFTFGSGTKLEIK
notes: Mouse monoclonal antibody; also called 8E5-B clone; monoclonal antibody 8E5B
With B1, the binding result was “binds”.
